Like-named read-outs stand apart in the source and are kept apart here. Blank lines part the entries; values can stand above or below the binder they belong to. Where no end group is shown, it is not given here.
Columns and labels:
[1] = target: T1, human Neuropeptide Y receptor type 2 (human, UniProt P49146 1-381); assay: cell-based or functional assay
T1 sequence (looked up): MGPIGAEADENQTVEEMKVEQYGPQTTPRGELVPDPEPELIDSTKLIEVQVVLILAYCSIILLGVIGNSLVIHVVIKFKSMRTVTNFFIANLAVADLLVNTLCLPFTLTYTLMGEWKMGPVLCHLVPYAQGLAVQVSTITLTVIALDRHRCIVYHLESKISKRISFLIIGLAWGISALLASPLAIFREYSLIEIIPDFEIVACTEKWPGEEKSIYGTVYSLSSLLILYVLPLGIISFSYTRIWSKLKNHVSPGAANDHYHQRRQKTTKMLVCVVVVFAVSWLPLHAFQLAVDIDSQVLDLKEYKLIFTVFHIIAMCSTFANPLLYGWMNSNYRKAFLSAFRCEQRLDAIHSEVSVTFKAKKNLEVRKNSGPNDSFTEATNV

[2] = target: T1, human Neuropeptide Y receptor type 2; assay: cell-based or functional assay; remark: listed apart in the source

B4: Example 2 (peptide)
peptide: PKPEAPGKDASPEELNRYYASLRKYLNWLTRQRY-NH2
hNPY Y2 pEC50 [2]: 9.8 pEC50

B5: Example 31 (peptide)
peptide: PKPEAPGKDASPEELNRYYASLRKYLNWVTRQRY-NH2
hNPY Y2 pEC50 [2]: 9.8 pEC50

B8: Peptide 1 (peptide)
peptide: PKPEAPGCDASPEEWNRYYASLRKYLNWVTRQNY-NH2
hNPY Y2 pEC50 [1]: 7.9 pEC50

B9: Peptide 2 (peptide)
peptide: IKPEAPLSKQLEEEAVRYYASLRHYLNLVTRQRY-NH2
hNPY Y2 pEC50 [1]: 8.6 pEC50

B10: Example 25 (peptide)
peptide: PKPEHPGKDASPEEWNRYYASLRKYLNWVTRQRY-NH2
hNPY Y2 pEC50 [2]: 9.6 pEC50

Second part, the binder after the results:

hNPY Y2 pEC50 [1]: 9.3 pEC50
B1: Peptide 8 (peptide)
peptide: IKPPYPGCDASPEEQNKYYASLRAYWNLVTRQRY-NH2

hNPY Y2 pEC50 [1]: 8.7 pEC50
B2: Peptide 21 (peptide)
peptide: PKPEAPLSKQLEEEAVRYYASLRHYLNLVTRQRY-NH2

hNPY Y2 pEC50 [1]: 8.2 pEC50
B3: Peptide 14 (peptide)
peptide: PKPEAPGCDASPEEWNRYYASLRKYLNWVTRQHY-NH2

hNPY Y2 pEC50 [1]: 8.9 pEC50
B6: Peptide 15 (peptide)
peptide: PKPVAPGCDASPAELNRQYSDLRNYWNLVTRQRY-NH2

hNPY Y2 pEC50 [1]: 9.2 pEC50
B7: Peptide 3 (peptide)
peptide: PKPEAPGEDASPKEWNRYYASLRKYLNWVTRQRY-NH2

Source: patent US20160108098A1 (GlaxoSmithKline, published 2016)
